± gives the uncertainty stated by the source.
B1: Far upstream element-binding protein 1, residues 98 to 169; numbered along this chain, Q96AE4 (parent)
chain: RSVMTEEYKVPDGMVGFIIGRGGEQISRIQQESGCKIQIAPDSGGLPERSCMLTGTPESVQSAKRLLDQIVE

Variants of: B1
Assay: abundance fitness (aPCA) (normalised: wild type 0, dead -1); higher = more abundant; growth selection in yeast, the domain comes from the species named
Conditions: Homo sapiens

Going from RSVMHEEYKVPDGMVGFIIGRGGEQISRIQQESGCKIQIAPDSGGLPERSCMLTGTPESVQSAKRLLDQIVE [T5H] to RSVMDEEYKVPDGMVGFIIGRGGEQISRIQQESGCKIQIAPDSGGLPERSCMLTGTPESVQSAKRLLDQIVE [T5D], the abundance fitness falls from -0.055 ± 0.037 to -0.149 ± 0.04.

Compared with RSVMCEEYKVPDGMVGFIIGRGGEQISRIQQESGCKIQIAPDSGGLPERSCMLTGTPESVQSAKRLLDQIVE [T5C], RSVMEEEYKVPDGMVGFIIGRGGEQISRIQQESGCKIQIAPDSGGLPERSCMLTGTPESVQSAKRLLDQIVE [T5E] is higher in abundance fitness: -0.072 ± 0.036 for the first, 0.009 ± 0.03 for the second.

RSVMAEEYKVPDGMVGFIIGRGGEQISRIQQESGCKIQIAPDSGGLPERSCMLTGTPESVQSAKRLLDQIVE [T5A] and RSVMFEEYKVPDGMVGFIIGRGGEQISRIQQESGCKIQIAPDSGGLPERSCMLTGTPESVQSAKRLLDQIVE [T5F] are within error of each other in abundance fitness: 0 ± 0.028 for the first, -0.006 ± 0.046 for the second.

RSVMGEEYKVPDGMVGFIIGRGGEQISRIQQESGCKIQIAPDSGGLPERSCMLTGTPESVQSAKRLLDQIVE [T5G] and RSSMTEEYKVPDGMVGFIIGRGGEQISRIQQESGCKIQIAPDSGGLPERSCMLTGTPESVQSAKRLLDQIVE [V3S] are within error of each other in abundance fitness: -0.101 ± 0.024 for the first, -0.087 ± 0.027 for the second.

RSKMTEEYKVPDGMVGFIIGRGGEQISRIQQESGCKIQIAPDSGGLPERSCMLTGTPESVQSAKRLLDQIVE [V3K] and RSHMTEEYKVPDGMVGFIIGRGGEQISRIQQESGCKIQIAPDSGGLPERSCMLTGTPESVQSAKRLLDQIVE [V3H] are within error of each other in abundance fitness: 0.03 ± 0.035 for the first, -0.043 ± 0.041 for the second.

RSLMTEEYKVPDGMVGFIIGRGGEQISRIQQESGCKIQIAPDSGGLPERSCMLTGTPESVQSAKRLLDQIVE [V3L] and RSGMTEEYKVPDGMVGFIIGRGGEQISRIQQESGCKIQIAPDSGGLPERSCMLTGTPESVQSAKRLLDQIVE [V3G] are within error of each other in abundance fitness: -0.047 ± 0.029 for the first, -0.086 ± 0.023 for the second.

RSNMTEEYKVPDGMVGFIIGRGGEQISRIQQESGCKIQIAPDSGGLPERSCMLTGTPESVQSAKRLLDQIVE [V3N] and RSQMTEEYKVPDGMVGFIIGRGGEQISRIQQESGCKIQIAPDSGGLPERSCMLTGTPESVQSAKRLLDQIVE [V3Q] are within error of each other in abundance fitness: -0.001 ± 0.043 for the first, -0.004 ± 0.034 for the second.

RSIMTEEYKVPDGMVGFIIGRGGEQISRIQQESGCKIQIAPDSGGLPERSCMLTGTPESVQSAKRLLDQIVE [V3I] and RSMMTEEYKVPDGMVGFIIGRGGEQISRIQQESGCKIQIAPDSGGLPERSCMLTGTPESVQSAKRLLDQIVE [V3M] are within error of each other in abundance fitness: 0.06 ± 0.037 for the first, 0.017 ± 0.036 for the second.

Going from RSYMTEEYKVPDGMVGFIIGRGGEQISRIQQESGCKIQIAPDSGGLPERSCMLTGTPESVQSAKRLLDQIVE [V3Y] to RSPMTEEYKVPDGMVGFIIGRGGEQISRIQQESGCKIQIAPDSGGLPERSCMLTGTPESVQSAKRLLDQIVE [V3P], the abundance fitness falls from 0.003 ± 0.041 to -0.092 ± 0.033.

RSFMTEEYKVPDGMVGFIIGRGGEQISRIQQESGCKIQIAPDSGGLPERSCMLTGTPESVQSAKRLLDQIVE [V3F] and RSTMTEEYKVPDGMVGFIIGRGGEQISRIQQESGCKIQIAPDSGGLPERSCMLTGTPESVQSAKRLLDQIVE [V3T] are within error of each other in abundance fitness: -0.073 ± 0.049 for the first, -0.005 ± 0.031 for the second.

First: RSWMTEEYKVPDGMVGFIIGRGGEQISRIQQESGCKIQIAPDSGGLPERSCMLTGTPESVQSAKRLLDQIVE [V3W]
Second: RSVCTEEYKVPDGMVGFIIGRGGEQISRIQQESGCKIQIAPDSGGLPERSCMLTGTPESVQSAKRLLDQIVE [M4C]
The abundance fitness of the first is lower: -0.084 ± 0.03 for the first, 0.01 ± 0.032 for the second.

RSVGTEEYKVPDGMVGFIIGRGGEQISRIQQESGCKIQIAPDSGGLPERSCMLTGTPESVQSAKRLLDQIVE [M4G] and RSVQTEEYKVPDGMVGFIIGRGGEQISRIQQESGCKIQIAPDSGGLPERSCMLTGTPESVQSAKRLLDQIVE [M4Q] are within error of each other in abundance fitness: -0.133 ± 0.023 for the first, -0.085 ± 0.03 for the second.

Going from RSVTTEEYKVPDGMVGFIIGRGGEQISRIQQESGCKIQIAPDSGGLPERSCMLTGTPESVQSAKRLLDQIVE [M4T] to RSVITEEYKVPDGMVGFIIGRGGEQISRIQQESGCKIQIAPDSGGLPERSCMLTGTPESVQSAKRLLDQIVE [M4I], the abundance fitness rises from -0.06 ± 0.031 to 0.015 ± 0.035.

Compared with RSVFTEEYKVPDGMVGFIIGRGGEQISRIQQESGCKIQIAPDSGGLPERSCMLTGTPESVQSAKRLLDQIVE [M4F], RSVSTEEYKVPDGMVGFIIGRGGEQISRIQQESGCKIQIAPDSGGLPERSCMLTGTPESVQSAKRLLDQIVE [M4S] is lower in abundance fitness: -0.001 ± 0.035 for the first, -0.135 ± 0.028 for the second.

RSVYTEEYKVPDGMVGFIIGRGGEQISRIQQESGCKIQIAPDSGGLPERSCMLTGTPESVQSAKRLLDQIVE [M4Y] and RSVHTEEYKVPDGMVGFIIGRGGEQISRIQQESGCKIQIAPDSGGLPERSCMLTGTPESVQSAKRLLDQIVE [M4H] are within error of each other in abundance fitness: -0.007 ± 0.041 for the first, -0.074 ± 0.045 for the second.

Going from RSVLTEEYKVPDGMVGFIIGRGGEQISRIQQESGCKIQIAPDSGGLPERSCMLTGTPESVQSAKRLLDQIVE [M4L] to RSVPTEEYKVPDGMVGFIIGRGGEQISRIQQESGCKIQIAPDSGGLPERSCMLTGTPESVQSAKRLLDQIVE [M4P], the abundance fitness falls from -0.033 ± 0.025 to -0.245 ± 0.032.

RSVNTEEYKVPDGMVGFIIGRGGEQISRIQQESGCKIQIAPDSGGLPERSCMLTGTPESVQSAKRLLDQIVE [M4N] and RSVKTEEYKVPDGMVGFIIGRGGEQISRIQQESGCKIQIAPDSGGLPERSCMLTGTPESVQSAKRLLDQIVE [M4K] are within error of each other in abundance fitness: -0.027 ± 0.037 for the first, -0.053 ± 0.034 for the second.

First: RSVRTEEYKVPDGMVGFIIGRGGEQISRIQQESGCKIQIAPDSGGLPERSCMLTGTPESVQSAKRLLDQIVE [M4R]
Second: RSVDTEEYKVPDGMVGFIIGRGGEQISRIQQESGCKIQIAPDSGGLPERSCMLTGTPESVQSAKRLLDQIVE [M4D]
The abundance fitness of the first is lower: -0.165 ± 0.023 for the first, -0.079 ± 0.036 for the second.

Going from RSVWTEEYKVPDGMVGFIIGRGGEQISRIQQESGCKIQIAPDSGGLPERSCMLTGTPESVQSAKRLLDQIVE [M4W] to RSVATEEYKVPDGMVGFIIGRGGEQISRIQQESGCKIQIAPDSGGLPERSCMLTGTPESVQSAKRLLDQIVE [M4A], the abundance fitness rises from -0.165 ± 0.03 to -0.07 ± 0.027.

— the Human Domainome abundance scans (Beltran et al. 2025)
